# Measurements reported in doi:10.1101/2020.07.28.225359 (bioRxiv, 2020).
# B1: MBP-T21CC (MBPCC235) (domain or fragment, human, UniProt P19474 132-235, looked up)
# chain: AQEYQEKLQVALGELRRKQELAEKLEVEIAIKRADWKKTVETQKSRIHAEFVQQKNFLVEEEQRQLQELEKDEREQLRILGEKEAKLAQQSQALQELISELDRR
# Assays:
# [1] = target: TRIM21 coiled-coil (CC235) (human) (UniProt P19474); assay: SEC-MALS
# [2] = target: TRIM21 coiled-coil (CC235) (human) (UniProt P19474); assay: ITC
# [3] = target: the molecule itself; assay: SAXS
Molecule,stoichiometry N [1],Kd [2] [µM],dH (dimer dissociation) [2] [kcal/mol],stoichiometry N [3]
TRIM21 coiled-coil (CC235) (from UniProt P19474 132-235) (domain or fragment),2,7,65,–
B1,–,–,–,2
